From article PMC12947862, “Oligomerization enables the selective targeting of an intrinsically disordered region by a small molecule” (Science Advances, 2026)

B1: AR AD fragment transactivation unit 5 (Tau-5*; residues 330 to 448) [human (from the printed UniProt entry)] / itself (parent)
chain: AAGSSGTLELPSTLSLYKSGALDEAAAYQSRDYYNFPLALAGPPPPPPPPHPHARIKLENPLDYGSAWAAAAAQCRYGDLASLHGAGAAGPGSGSPSAAASSSWHTLFTAEEGQLYGPC

Variants of: B1
Assay: 2D 1H-15N NMR, concentration-dependent CSPs (self-association)
Details: with itself; protein concentration from 25 to 400 μM; read off a plot

Row | response [p.p.m.] | Variant
1 | 0.005 | chain 1 A69P
2 | 0.0068 | chain 1 W104A H105A F108A
3 | 0.0065 | chain 1 L107P
4 | 0.019 | chain 1 C75Y
5 | 0.013 | chain 1 G78A
6 | 0.02 | chain 1 G65A S66A G78A
